From paper PMC2901396

Biological target: DNA polymerase gamma catalytic subunit p140, Exo- R964C (Homo sapiens, UniProt P54098 26-1239, D198A;E200A;R964C)
Test: EMSA

Chain of DNA polymerase gamma catalytic subunit p140, Exo- R964C (P54098 26-1239 D198A/E200A/R964C): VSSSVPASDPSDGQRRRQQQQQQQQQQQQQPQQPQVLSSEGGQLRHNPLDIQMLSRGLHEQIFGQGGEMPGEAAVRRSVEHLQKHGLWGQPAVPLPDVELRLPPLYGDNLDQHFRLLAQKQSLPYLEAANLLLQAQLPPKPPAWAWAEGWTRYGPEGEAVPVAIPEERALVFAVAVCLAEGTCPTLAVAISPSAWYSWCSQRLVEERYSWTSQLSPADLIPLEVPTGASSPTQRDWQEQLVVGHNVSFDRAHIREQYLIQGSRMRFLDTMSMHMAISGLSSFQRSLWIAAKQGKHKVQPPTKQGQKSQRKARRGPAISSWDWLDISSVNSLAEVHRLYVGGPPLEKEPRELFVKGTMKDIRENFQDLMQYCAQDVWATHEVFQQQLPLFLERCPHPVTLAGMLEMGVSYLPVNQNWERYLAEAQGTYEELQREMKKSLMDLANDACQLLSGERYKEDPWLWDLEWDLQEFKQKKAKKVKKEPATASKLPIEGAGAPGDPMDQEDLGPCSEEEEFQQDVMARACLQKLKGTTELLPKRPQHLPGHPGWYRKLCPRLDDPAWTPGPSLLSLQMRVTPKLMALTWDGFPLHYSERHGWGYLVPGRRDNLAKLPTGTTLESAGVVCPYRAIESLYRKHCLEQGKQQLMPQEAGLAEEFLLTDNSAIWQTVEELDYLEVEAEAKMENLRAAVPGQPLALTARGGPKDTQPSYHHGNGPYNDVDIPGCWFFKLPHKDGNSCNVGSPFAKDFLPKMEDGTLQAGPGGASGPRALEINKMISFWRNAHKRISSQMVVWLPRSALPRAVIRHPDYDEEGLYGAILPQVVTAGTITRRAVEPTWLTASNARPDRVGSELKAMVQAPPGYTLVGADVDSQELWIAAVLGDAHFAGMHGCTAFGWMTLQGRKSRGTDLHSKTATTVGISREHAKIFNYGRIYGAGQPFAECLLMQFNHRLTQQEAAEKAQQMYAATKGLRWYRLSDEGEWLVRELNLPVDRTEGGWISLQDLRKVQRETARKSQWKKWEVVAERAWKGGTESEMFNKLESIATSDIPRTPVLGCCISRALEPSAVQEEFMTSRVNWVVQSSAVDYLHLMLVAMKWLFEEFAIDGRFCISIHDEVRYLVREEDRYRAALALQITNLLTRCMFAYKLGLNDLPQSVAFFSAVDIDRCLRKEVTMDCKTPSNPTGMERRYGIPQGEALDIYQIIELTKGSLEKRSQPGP

B1: 38-mer/34-mer primer-template (dsDNA)
DNA 1: TTATCGCACCTACGTTCAATATTACAGGCGAACATACT
DNA 2: GTATGTTCGCCTGTAATATTGAACGTAGGTGCGA
B1 showed a Kd of 75 ± 4 nM.
